Reference: US20090105152A1
Numbered stars: 1 amine (or outer) side, 2 acyl side, 3 side chain; on linkers, the order of the positions; unused ones are H or OH. Square brackets hold non-standard residues; d marks the D form. Hyp(Bzl) = O-benzyl-trans-4-hydroxyproline, O=C([C@@H]1C[C@@H](OCc2ccccc2)CN1[*:1])[*:2]; Asp(NHcPr) = N-omega-cyclopropylasparagine, O=C(C[C@H](N[*:1])C(=O)[*:2])NC1CC1; Asp(NHPen) = N-omega-pentylasparagine, CCCCCNC(=O)C[C@H](N[*:1])C(=O)[*:2]; Pro(4S-NH2) = N[C@@H]1CN[C@H](C(=O)O)C1; Phe(3-F) = N[C@@H](Cc1cccc(F)c1)C(=O)O; Phe(4-F) = N[C@@H](Cc1ccc(F)cc1)C(=O)O; Phe(2-F) = N[C@@H](Cc1ccccc1F)C(=O)O; Arg(Me) = CNC(=N)NCCC[C@H](N)C(=O)O; Dap(CONH2) = NC(=O)NC[C@H](N)C(=O)O; Hyp = O=C(O)[C@@H]1C[C@@H](O)CN1; dNMeF = CN[C@H](Cc1ccccc1)C(=O)O; NMeS = CN[C@@H](CO)C(=O)O; Aib = CC(C)(N)C(=O)O; azaGly = NNC(=O)O

Each binder was assayed against human OT7T175 (metastin receptor) (human) (UniProt Q969F8) (assay: cell-based or functional assay).
human OT7T175 (metastin receptor) (human), sequence (Q969F8 whole entry L364H): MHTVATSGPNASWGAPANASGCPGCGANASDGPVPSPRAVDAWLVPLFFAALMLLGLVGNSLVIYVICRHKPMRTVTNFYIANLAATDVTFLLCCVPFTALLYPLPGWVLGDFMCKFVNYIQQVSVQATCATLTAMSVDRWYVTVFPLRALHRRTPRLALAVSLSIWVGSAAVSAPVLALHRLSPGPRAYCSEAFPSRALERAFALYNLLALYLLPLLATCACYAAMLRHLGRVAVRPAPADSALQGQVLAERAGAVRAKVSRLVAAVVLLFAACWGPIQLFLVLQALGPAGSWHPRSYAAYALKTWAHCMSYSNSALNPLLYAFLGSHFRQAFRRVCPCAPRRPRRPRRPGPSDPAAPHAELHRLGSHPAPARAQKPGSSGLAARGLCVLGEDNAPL

| intracellular Ca ion level-increasing activity [specific activity to Metastin (1-54)] (relative to Metastin (1-54)) | Binder |
| --- | --- |
| 2.1 | Ac-[dY][Pro(4S-NH2)]NTF[azaGly]L[Arg(Me)]W-NH2 (SMILES CNC(=N)NCCC[C@H](NC(=O)[C@H](CC(C)C)NC(=O)NNC(=O)[C@H](Cc1ccccc1)NC(=O)[C@@H](NC(=O)[C@H](CC(N)=O)NC(=O)[C@@H]1C[C@H](N)CN1C(=O)[C@@H](Cc1ccc(O)cc1)NC(C)=O)[C@@H](C)O)C(=O)N[C@@H](Cc1c[nH]c2ccccc12)C(N)=O) [des(1)-Ac-[D-Tyr2,Pro(4NH2)3,Thr5,AzaGly7,Arg(Me)9,Trp10]MS10] |
| 1.4 | Ac-[dY][Hyp]NTF[azaGly]LRW-NH2 (SMILES CC(=O)N[C@H](Cc1ccc(O)cc1)C(=O)N1C[C@H](O)C[C@H]1C(=O)N[C@@H](CC(N)=O)C(=O)N[C@H](C(=O)N[C@@H](Cc1ccccc1)C(=O)NNC(=O)N[C@@H](CC(C)C)C(=O)N[C@@H](CCCNC(=N)N)C(=O)N[C@@H](Cc1c[nH]c2ccccc12)C(N)=O)[C@@H](C)O) [des(1)-Ac-[D-Tyr2,Hyp3,Thr5,AzaGly7,Trp10]MS10] |
| 2.3 | Ac-[dY][Hyp]NT[Phe(4-F)][azaGly]L[Arg(Me)]W-NH2 (SMILES CNC(=N)NCCC[C@H](NC(=O)[C@H](CC(C)C)NC(=O)NNC(=O)[C@H](Cc1ccc(F)cc1)NC(=O)[C@@H](NC(=O)[C@H](CC(N)=O)NC(=O)[C@@H]1C[C@@H](O)CN1C(=O)[C@@H](Cc1ccc(O)cc1)NC(C)=O)[C@@H](C)O)C(=O)N[C@@H](Cc1c[nH]c2ccccc12)C(N)=O) [des(1)-Ac-[D-Tyr2,Hyp3,Thr5,Phe(4F)6,AzaGly7,Arg(Me)9,Trp10]MS10] |
| 1 | Ac-[dY][Hyp]N[NMeS]F[azaGly]L[Arg(Me)]W-NH2 (SMILES CNC(=N)NCCC[C@H](NC(=O)[C@H](CC(C)C)NC(=O)NNC(=O)[C@H](Cc1ccccc1)NC(=O)[C@H](CO)N(C)C(=O)[C@H](CC(N)=O)NC(=O)[C@@H]1C[C@@H](O)CN1C(=O)[C@@H](Cc1ccc(O)cc1)NC(C)=O)C(=O)N[C@@H](Cc1c[nH]c2ccccc12)C(N)=O) [des(1)-Ac-[D-Tyr2,Hyp3,NMeSer5,AzaGly7,Arg(Me)9,Trp10]MS10] |
| 1 | Ac-[dY][Hyp(Bzl)]NTF[azaGly]L[Arg(Me)]W-NH2 (SMILES CNC(=N)NCCC[C@H](NC(=O)[C@H](CC(C)C)NC(=O)NNC(=O)[C@H](Cc1ccccc1)NC(=O)[C@@H](NC(=O)[C@H](CC(N)=O)NC(=O)[C@@H]1C[C@@H](OCc2ccccc2)CN1C(=O)[C@@H](Cc1ccc(O)cc1)NC(C)=O)[C@@H](C)O)C(=O)N[C@@H](Cc1c[nH]c2ccccc12)C(N)=O) [des(1)-Ac-[D-Tyr2,Hyp(Bzl)3,Thr5,AzaGly7,Arg(Me)9,Trp10]MS10] |
| 2.3 | Ac-[dY][Hyp]NT[dF][azaGly]L[Arg(Me)]W-NH2 [des(1)-Ac-[D-Tyr2,Hyp3,Thr5,D-Phe6,AzaGly7,Arg(Me)9,Trp10]MS10] |
| 3.4 | Ac-[dY]KNT[Phe(4-F)][azaGly]L[Arg(Me)]W-NH2 (SMILES CNC(=N)NCCC[C@H](NC(=O)[C@H](CC(C)C)NC(=O)NNC(=O)[C@H](Cc1ccc(F)cc1)NC(=O)[C@@H](NC(=O)[C@H](CC(N)=O)NC(=O)[C@H](CCCCN)NC(=O)[C@@H](Cc1ccc(O)cc1)NC(C)=O)[C@@H](C)O)C(=O)N[C@@H](Cc1c[nH]c2ccccc12)C(N)=O) [des(1)-Ac-[D-Tyr2,Lys3,Thr5,Phe(4F)6,AzaGly7,Arg(Me)9,Trp10]MS10] |

More lines, now with the values behind:

| Binder | intracellular Ca ion level-increasing activity [specific activity to Metastin (1-54)] (relative to Metastin (1-54)) |
| --- | --- |
| Ac-[dY][Hyp][Dap(CONH2)]TF[azaGly]L[Arg(Me)]W-NH2 (SMILES CNC(=N)NCCC[C@H](NC(=O)[C@H](CC(C)C)NC(=O)NNC(=O)[C@H](Cc1ccccc1)NC(=O)[C@@H](NC(=O)[C@H](CNC(N)=O)NC(=O)[C@@H]1C[C@@H](O)CN1C(=O)[C@@H](Cc1ccc(O)cc1)NC(C)=O)[C@@H](C)O)C(=O)N[C@@H](Cc1c[nH]c2ccccc12)C(N)=O) [des(1)-Ac-[D-Tyr2,Hyp3,Alb4,Thr5,AzaGly7,Arg(Me)9,Trp10]MS10] | 0.8 |
| Ac-[dY][dNMeF]NTF[azaGly]L[Arg(Me)]W-NH2 (SMILES CNC(=N)NCCC[C@H](NC(=O)[C@H](CC(C)C)NC(=O)NNC(=O)[C@H](Cc1ccccc1)NC(=O)[C@@H](NC(=O)[C@H](CC(N)=O)NC(=O)[C@@H](Cc1ccccc1)N(C)C(=O)[C@@H](Cc1ccc(O)cc1)NC(C)=O)[C@@H](C)O)C(=O)N[C@@H](Cc1c[nH]c2ccccc12)C(N)=O) [des(1)-Ac-[D-Tyr2,D-NMePhe3,Thr5,AzaGly7,Arg(Me)9,Trp10]MS10] | 1.8 |
| Ac-[dY][Aib]NT[Phe(4-F)][azaGly]L[Arg(Me)]W-NH2 (SMILES CNC(=N)NCCC[C@H](NC(=O)[C@H](CC(C)C)NC(=O)NNC(=O)[C@H](Cc1ccc(F)cc1)NC(=O)[C@@H](NC(=O)[C@H](CC(N)=O)NC(=O)C(C)(C)NC(=O)[C@@H](Cc1ccc(O)cc1)NC(C)=O)[C@@H](C)O)C(=O)N[C@@H](Cc1c[nH]c2ccccc12)C(N)=O) [des(1)-Ac-[D-Tyr2,Aib3,Thr5,Phe(4F)6,AzaGly7,Arg(Me)9,Trp10]MS10] | 2.9 |
| Ac-[dY]GNT[Phe(4-F)][azaGly]L[Arg(Me)]W-NH2 (SMILES CNC(=N)NCCC[C@H](NC(=O)[C@H](CC(C)C)NC(=O)NNC(=O)[C@H](Cc1ccc(F)cc1)NC(=O)[C@@H](NC(=O)[C@H](CC(N)=O)NC(=O)CNC(=O)[C@@H](Cc1ccc(O)cc1)NC(C)=O)[C@@H](C)O)C(=O)N[C@@H](Cc1c[nH]c2ccccc12)C(N)=O) [des(1)-Ac-[D-Tyr2,Gly3,Thr5,Phe(4F)6,AzaGly7,Arg(Me)9,Trp10]MS10] | 2.3 |
| Ac-[dY][Aib]NT[Phe(2-F)][azaGly]L[Arg(Me)]W-NH2 (SMILES CNC(=N)NCCC[C@H](NC(=O)[C@H](CC(C)C)NC(=O)NNC(=O)[C@H](Cc1ccccc1F)NC(=O)[C@@H](NC(=O)[C@H](CC(N)=O)NC(=O)C(C)(C)NC(=O)[C@@H](Cc1ccc(O)cc1)NC(C)=O)[C@@H](C)O)C(=O)N[C@@H](Cc1c[nH]c2ccccc12)C(N)=O) [des(1)-Ac-[D-Tyr2,Aib3,Thr5,Phe(2F)6,AzaGly7,Arg(Me)9,Trp10]MS10] | 3.4 |
| Ac-[dY]ENT[Phe(4-F)][azaGly]L[Arg(Me)]W-NH2 (SMILES CNC(=N)NCCC[C@H](NC(=O)[C@H](CC(C)C)NC(=O)NNC(=O)[C@H](Cc1ccc(F)cc1)NC(=O)[C@@H](NC(=O)[C@H](CC(N)=O)NC(=O)[C@H](CCC(=O)O)NC(=O)[C@@H](Cc1ccc(O)cc1)NC(C)=O)[C@@H](C)O)C(=O)N[C@@H](Cc1c[nH]c2ccccc12)C(N)=O) [des(1)-Ac-[D-Tyr2,Glu3,Thr5,Phe(4F)6,AzaGly7,Arg(Me)9,Trp10]MS10] | 2.7 |
| Ac-[dY][dW][Asp(NHPen)]TF[azaGly]L[Arg(Me)]W-NH2 (SMILES CCCCCNC(=O)C[C@H](NC(=O)[C@@H](Cc1c[nH]c2ccccc12)NC(=O)[C@@H](Cc1ccc(O)cc1)NC(C)=O)C(=O)N[C@H](C(=O)N[C@@H](Cc1ccccc1)C(=O)NNC(=O)N[C@@H](CC(C)C)C(=O)N[C@@H](CCCNC(=N)NC)C(=O)N[C@@H](Cc1c[nH]c2ccccc12)C(N)=O)[C@@H](C)O) [des(1)-Ac-[D-Tyr2,D-Trp3,Asp(NHPen)4,Thr5,AzaGly7,Arg(Me)9,Trp10]MS10] | 0.7 |
| Ac-[dY]GNT[Phe(3-F)][azaGly]L[Arg(Me)]W-NH2 (SMILES CNC(=N)NCCC[C@H](NC(=O)[C@H](CC(C)C)NC(=O)NNC(=O)[C@H](Cc1cccc(F)c1)NC(=O)[C@@H](NC(=O)[C@H](CC(N)=O)NC(=O)CNC(=O)[C@@H](Cc1ccc(O)cc1)NC(C)=O)[C@@H](C)O)C(=O)N[C@@H](Cc1c[nH]c2ccccc12)C(N)=O) [des(1)-Ac-[D-Tyr2,Gly3,Thr5,Phe(3F)6,AzaGly7,Arg(Me)9,Trp10]MS10] | 3.2 |
| Ac-[dY][Aib]NT[Phe(3-F)][azaGly]L[Arg(Me)]W-NH2 (SMILES CNC(=N)NCCC[C@H](NC(=O)[C@H](CC(C)C)NC(=O)NNC(=O)[C@H](Cc1cccc(F)c1)NC(=O)[C@@H](NC(=O)[C@H](CC(N)=O)NC(=O)C(C)(C)NC(=O)[C@@H](Cc1ccc(O)cc1)NC(C)=O)[C@@H](C)O)C(=O)N[C@@H](Cc1c[nH]c2ccccc12)C(N)=O) [des(1)-Ac-[D-Tyr2,Aib3,Thr5,Phe(3F)6,AzaGly7,Arg(Me)9,Trp10]MS10] | 3.3 |
| Ac-[dY][dW][Asp(NHcPr)]TF[azaGly]L[Arg(Me)]W-NH2 (SMILES CNC(=N)NCCC[C@H](NC(=O)[C@H](CC(C)C)NC(=O)NNC(=O)[C@H](Cc1ccccc1)NC(=O)[C@@H](NC(=O)[C@H](CC(=O)NC1CC1)NC(=O)[C@@H](Cc1c[nH]c2ccccc12)NC(=O)[C@@H](Cc1ccc(O)cc1)NC(C)=O)[C@@H](C)O)C(=O)N[C@@H](Cc1c[nH]c2ccccc12)C(N)=O) [des(1)-Ac-[D-Tyr2,D-Trp3,Asp(NHcPr)4,Thr5,AzaGly7,Arg(Me)9,Trp10]MS10] | 1.6 |
| {4‑(bis-(2-pyridylmethyl)aminomethyl)benzoyl}-F[azaGly]L[Arg(Me)]W-NH2 [des(1-5)-4-[Bis-(2-Pyridylmethyl)aminomethyl]benzoyl-[AzaGly7,Arg(Me)9,Trp10]MS10] | 11.1 |
| Ac-[dY]GNT[Phe(2-F)][azaGly]L[Arg(Me)]W-NH2 (SMILES CNC(=N)NCCC[C@H](NC(=O)[C@H](CC(C)C)NC(=O)NNC(=O)[C@H](Cc1ccccc1F)NC(=O)[C@@H](NC(=O)[C@H](CC(N)=O)NC(=O)CNC(=O)[C@@H](Cc1ccc(O)cc1)NC(C)=O)[C@@H](C)O)C(=O)N[C@@H](Cc1c[nH]c2ccccc12)C(N)=O) [des(1)-Ac-[D-Tyr2,Gly3,Thr5,Phe(2F)6,AzaGly7,Arg(Me)9,Trp10]MS10] | 8.8 |
